The labels stand for the following.
B1: M14-G07-15: antibody, Vh SEQ ID NO: 155, Vl SEQ ID NO: 156 (antibody, listed as Homo Sapiens, V domains shown)
VH: EVQLLESGGGLVQPGGSLRLSCAASGFTFSSYAMSWVRQAPGKGLEWVGGISGSGGSTYYADSVKGRFTISRDNSKNTLYLQMNSLRAEDTAVYYCARQGRTSFYLDVWGQGTLVTVSS
VL: QSVLTQPPSASGTPGQRVTISCSGSSSNIGSYYVYWYQQLPGTAPKLLIYDNNQRPSGVPDRFSGSKSGTSASLAISGLRSEDEADYYCVAWDDSWSGHWVFGGGTKLTVL
B2: M14-G07-28: antibody, Vh SEQ ID NO: 181, Vl SEQ ID NO: 182 (antibody, listed as Homo Sapiens, V domains shown)
VH: B1 VH
VL: B1 VL with W96Y
B3: M14-G07-16: antibody, Vh SEQ ID NO: 157, Vl SEQ ID NO: 158 (antibody, listed as Homo Sapiens, V domains shown)
VH: B1 VH with T28R
VL: B1 VL with S27R, Y32F, N53R, W96Y, H99T
B4: M14-G07-18: antibody, Vh SEQ ID NO: 161, Vl SEQ ID NO: 162 (antibody, listed as Homo Sapiens, V domains shown)
VH: B1 VH with T28R
VL: B1 VL with S27R, H99T
B5: M14-G07-2: antibody, Vh SEQ ID NO: 129, Vl SEQ ID NO: 130 (antibody, listed as Homo Sapiens, V domains shown)
VH: B1 VH
VL: B1 VL with S23C, S27R, H99T
B6: M14-G07-26: antibody, Vh SEQ ID NO: 177, Vl SEQ ID NO: 178 (antibody, listed as Homo Sapiens, V domains shown)
VH: B1 VH with R101K
VL: B1 VL with Y32F, W96Y, H99T
B7: M14-G07-17: antibody, Vh SEQ ID NO: 159, Vl SEQ ID NO: 160 (antibody, listed as Homo Sapiens, V domains shown)
VH: B1 VH
VL: B1 VL with S27R, S31A, Y32F, N53R, H99T
B8: M14-G07-1: antibody, Vh SEQ ID NO: 127, Vl SEQ ID NO: 128 (antibody, listed as Homo Sapiens, V domains shown)
VH: B1 VH with T28R
VL: B1 VL with S27R, Y32F, H99T
B9: M14-G07-31: antibody, Vh SEQ ID NO: 187, Vl SEQ ID NO: 188 (antibody, listed as Homo Sapiens, V domains shown)
VH: B1 VH
VL: B1 VL with S31A, Y32F, D94W, W96L, H99T
B10: M14-G07-24: antibody, Vh SEQ ID NO: 173, Vl SEQ ID NO: 174 (antibody, listed as Homo Sapiens, V domains shown)
VH: B1 VH with G49S
VL: B1 VL with S27R, W96L, H99T
B11: M14-G07-29: antibody, Vh SEQ ID NO: 183, Vl SEQ ID NO: 184 (antibody, listed as Homo Sapiens, V domains shown)
VH: B1 VH with T28R, G49S
VL: B1 VL with S31A, D94W, H99T
B12: M14-G07-23: antibody, Vh SEQ ID NO: 171, Vl SEQ ID NO: 172 (antibody, listed as Homo Sapiens, V domains shown)
VH: B1 VH with T28R
VL: B1 VL with S27R, S31A, Y32F, W96L, H99T
B13: M14-G07-25: antibody, Vh SEQ ID NO: 175, Vl SEQ ID NO: 176 (antibody, listed as Homo Sapiens, V domains shown)
VH: B1 VH with T28R
VL: B1 VL with S31A, W96Y, H99T
B14: M14-G07-32: antibody, Vh SEQ ID NO: 189, Vl SEQ ID NO: 190 (antibody, listed as Homo Sapiens, V domains shown)
VH: B1 VH with T28R
VL: B1 VL with S31A, N53R, W96L
B15: M14-G07-19: antibody, Vh SEQ ID NO: 163, Vl SEQ ID NO: 164 (antibody, listed as Homo Sapiens, V domains shown)
VH: B1 VH with G49S
VL: B1 VL with S27R, Y32F, N53R, W96L
B16: M14-G07-27: antibody, Vh SEQ ID NO: 179, Vl SEQ ID NO: 180 (antibody, listed as Homo Sapiens, V domains shown)
VH: B1 VH
VL: B1 VL with S31A, W96Y
B17: M14-G07-30: antibody, Vh SEQ ID NO: 185, Vl SEQ ID NO: 186 (antibody, listed as Homo Sapiens, V domains shown)
VH: B1 VH with G49S
VL: B1 VL with S27R, Y32F, W96L
B18: M14-G07-33: antibody, Vh SEQ ID NO: 191, Vl SEQ ID NO: 192 (antibody, listed as Homo Sapiens, V domains shown)
VH: B1 VH with T28R
VL: B1 VL with S27R, S31A, Y32F, D94W, W96Y
B19: M14-G07-34: antibody, Vh SEQ ID NO: 193, Vl SEQ ID NO: 194 (antibody, listed as Homo Sapiens, V domains shown)
VH: B1 VH with T28R
VL: B1 VL with S26T, N53R, W96L, H99T
B20: M14-G07-22: antibody, Vh SEQ ID NO: 169, Vl SEQ ID NO: 170 (antibody, listed as Homo Sapiens, V domains shown)
VH: B1 VH
VL: B1 VL with S31A, H99T
B21: M14-G07-20: antibody, Vh SEQ ID NO: 165, Vl SEQ ID NO: 166 (antibody, listed as Homo Sapiens, V domains shown)
VH: B1 VH with T28R
VL: B1 VL with S31A, W96L, H99T
B22: M14-G07-37: antibody, Vh SEQ ID NO: 199, Vl SEQ ID NO: 200 (antibody, listed as Homo Sapiens, V domains shown)
VH: B1 VH with G49S, Q99E, R101E
VL: B1 VL
B23: M14-G07-21: antibody, Vh SEQ ID NO: 167, Vl SEQ ID NO: 168 (antibody, listed as Homo Sapiens, V domains shown)
VH: B1 VH with T28R, R101E
VL: B1 VL with Q38H, H99T

Positions count from the first letter of the chain named.

The assay can be described thus: ELISA-based activity assay of antibody variants without a competition step. Type of assay: binding. On the set-up: key: +++: Variants with an average ratio above reference plus 2×SD; +/−: variants with a ratio below reference minus 2×SD; ++: All variants with a performance in between both thresholds; −: Variants with a ratio below 0.5. The conditions noted are these: Table 10, multiple substitutions within M14-G07, variant to reference ratio (reference 2-fold improved over wt). The procedure: To determine the activity of the mutated antibody variants on compound from Example 1K an equilibrium or dissociation limited ELISA assay format was used. Briefly, MTP plates (Nunc Maxisorp black, 460518) were coated with 4 μg/ml streptavidin (Calbiochem, 189730) diluted in coating buffer (Candor Bioscience GmbH, 121500) and incubated over night at 4° C. After washing with PBST, plates were blocked with 100% Smart Block (Candor Bioscience GmbH, 113500) in PBST for 1 h at room temperature and the washing step was repeated. Plates were incubated with compound from Example 1K at varying concentrations (0.3-200 nM) for 1 h at 37° C., washed with PBST and antibody fragments were immobilized by adding 25 μl of the crude bacterial cultures for 1 h at room temperature. After washing with PBST a competition step or the immediate detection was performed. […] For the detection of the residually bound Fabs a HRP-coupled anti-lambda antibody (Sigma, A5175) diluted in 10% Smart Block in PBST was added for 1 h at room temperature. After washing 10 μM Amplex Red (Invitrogen, A12222) were added and incubated for 10 to 30 min at room temperature followed by measurement of the fluorescence signal.
Provided in Table 9 are several examples of single and/or double amino acid substitutions introduced into the heavy and/or the light chain of M14-G07 (wt). Performance of the variants was analyzed in quadruples in the ELISA without a competition step and the FXa deinhibition assay (FXa DIA). In the ELISA, averages were calculated and normalized to the respective average expression level. Overall performance of variants was evaluated by comparing the variant to wt ratio from 2-3 independent experiments. Variants with an average ratio above wt plus 2×SD (standard deviation of the ratio) were considered as improved and are marked with “++”, whereas variants with a ratio below wt minus 2×SD were considered as reduced in their binding affinity and are marked with “−”. All variants with a performance in between both thresholds are marked with “+/−”. Variants with average fluorescence counts below the negative control (non-expressing cells) plus 3×SD were considered as non-binding and marked with “−−” with none of the variants fulfilling this criteria. In the FXa deinhibition assay averages were calculated and overall performance of variants was evaluated by comparing the variant to wt ratio from 2-3 independent experiments. Variants with an average ratio above wt plus 2×SD were considered as improved and are marked with “++”, whereas variants with a ratio below wt minus 2×SD were considered as either reduced in their binding affinity or non-binding and are marked with “−−”. All variants with a performance in between both thresholds are marked with “+/−”. Variants not analyzed are marked with “nd” (not determined). CDRs were defined according to Kabat.
Provided in Table 10 are examples of combined amino acid substitutions within M14-G07 antibodies. While not every combination is provided in Table 10, it is contemplated that the anti-rivaroxaban antibody may comprise any combination of modifications provided. Variant performance was analyzed in quadruples in the ELISA without a competition step. Averages were calculated, average background signals determined on a streptavidin coated plate without compound from Example 1K were subtracted if the compound from Example 1K concentration used for coating was below 10 nM and signals were normalized to the respective average expression level. Overall performance of variants was evaluated by comparing the variant to reference ratio from 2-3 independent experiments using a 2-fold improved reference variant as compared to wt. Variants with an average ratio above reference plus 2×SD are marked with “+++”, whereas variants with a ratio below reference minus 2×SD are marked with “+/−”. All variants with a performance in between both thresholds are marked with “++”. […]
Regarding B1, the ELISA result is given as “+++”.
On to B2, for which the ELISA entry is on record as “+++”.
For B3 the value was “+++”; for B4, “+++”.
The same measure for B5: “+++”; for B6: “+++”; for B7: “+++”.
Turning to B8, the ELISA result is on record as “+++”.
Consider B9, for which the ELISA entry is reported as “+++”.
For B10 the value was “+++”; for B11, “+++”; for B12, “+++”.
The same measure for B13: “+++”; for B14: “+++”; for B15: “+++”.
For B16 the value was “+++”; for B17, “+++”; for B18, “+++”.
With B19, the ELISA result is recorded as “+++”.
Turning to B20, the ELISA entry was “+++”.
For B21 the value was “+++”; for B22, “+++”; for B23, “+++”.

(Values after patent US20140050743A1, “BINDING PROTEINS TO INHIBITORS OF COAGULATION FACTORS” (BAYER INTELLECTUAL PROPERTY GMBH, priority 2011, published 2014).)
